Source: the supplement of paper PMC11780869

Test system: Bacillus subtilis
Assay: cleaved RNA product abundance (RNA/gDNA barcode ratio) relative to median wild-type variant (ratio to wild type); higher = more accumulation of the downstream cleavage product
Conditions: cleavage site: cggR-gapA (positions -7 to +36 mutated)
Summary of the method: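 Cleaved product abundance was measured with barcoded reporter mRNAs (truncated aprE or tetM) carrying mutagenized RNase Y cleavage-site windows in the B. subtilis chromosome. Cultures in LB at 37°C grew from OD600 0.0003 to 0.3. Gel-selected cleaved RNA was reverse transcribed and barcode-sequenced with genomic DNA barcodes, and the RNA:gDNA barcode ratio per construct was scaled to the median construct bearing the unmutated site.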

[1] = experiment (reporter, strain, medium): exp 4a: truncated aprE reporter, strain BJT201 with 2% xylose (RNase J1 expressed)
[2] = experiment (reporter, strain, medium): exp 2b: truncated aprE reporter, strain BJT200
[3] = experiment (reporter, strain, medium): exp 6: tetM reporter, strain 168

Sequence	cleaved RNA product abundance [1]	cleaved RNA product abundance [2]	cleaved RNA product abundance [3]
ACAGACGAAGGAGCCGCAAAGAATTTATTAAGGGATGTATAATCCCTCAATATAAATATCTCTCACTTATTTAAA	0.683	–	–
ACAGACGAAGGAGCCGCAAAGAATTTATTAAGGGATTAATAATCACTCAATATAAATATCTCTCACTTATTTAAA	0.153	–	–
ACAGACGAAGGAGCCGCAAAGAATTTATTAAGGGATTAATAATCCCTCAATATAAATATCTCTCACTTATTTAAA	0.772	0.771	–
ACAGACGAAGGAGCCGCAAAGAATTTATTAAGGGCTGAATAATCCCTCAATATAAATATCTCTCACTTATTTAAA	0.402	–	–
ACAGACGAAGGAGCCGCAAAGAATTTATTAAGGGGTGAATAATCCCTCAATATAAATATCTCTCACTTATTTAAA	0.526	–	–
ACAGACGAAGGAGCCGCAAAGAATTTATTAAGGGTTGAATAATCCCTCAATATAAATATCTCTCACTTATTTAAA	0.388	–	–
ACAGACGAAGGAGCCGCAAAGAATTTATTAAGGTATGAATAATCCCTCAATATAAATATCTCTCACTTATTTAAA	0.178	0.102	–
ACAGACGAAGGAGCCGCAAAGAATTTATTAAGTGATGAATAATCCCTCAATATAAATATCTCTCACTTATTTAAA	0.118	0.127	0.117
ACAGACGAAGGAGCCGCAAAGAATTTATTAATGGATGAATAATCCCTCAATATAAATATCTCTCACTTATTTAAA	0.111	0.105	–
ACAGACGAAGGAGCCGCAAAGAATTTATTACGGGATGAATAATCCCTCAATATAAATATCTCTCACTTATTTAAA	0.37	0.303	–
ACAGACGAAGGAGCCGCAAAGAATTTATTATGGGATGAATAATCCCTCAATATAAATATCTCTCACTTATTTAAA	0.292	0.266	–
ACAGACGAAGGAGCCGCAAAGAATTTATTCAGGGATGAATAATCCCTCAATATAAATATCTCTCACTTATTTAAA	0.549	0.624	–
ACAGACGAAGGAGCCGCAAAGAATTTATTTAGGAATGAATAATCCCTCAATATAAATATCTCTCACTTATTTAAA	0.0547	–	–
ACAGACGAAGGAGCCGCAAAGAATTTCTTAAGGGATGAATAATCCCTCAATATAAATATCTCTCACTTATTTAAA	0.217	–	–
ACAGACGAAGGAGCCGCAAAGAATTTTTTAAGGGATGAATAATCCCTCAATATAAATATCTCTCACTTATTTAAA	0.216	–	–
ACAGACGAAGGAGCCGCAAAGACATTATTAAGGGATGAATAATCCCTCAATATAAATATCTCTCACTTATTTAAA	0.85	–	–
ACAGACGAAGGAGCCGCAAAGACGCTATTAAGGGATGAATAATCCCTCAATATAAATATCTCTCACTTATTTAAA	–	0.548	–
ACAGACGAAGGAGCCGCAAAGACGTCATTAAGGGATGAATAATCCCTCAATATAAATATCTCTCACTTATTTAAA	0.449	–	–
ACAGACGAAGGAGCCGCAAAGACGTTATAAAGGGATGAATAATCCCTCAATATAAATATCTCTCACTTATTTAAA	0.401	–	–
ACAGACGAAGGAGCCGCAAAGACGTTATTAAAGGATGAATAATCCCTCAATATAAATATCTCTCACTTATTTAAA	0.181	–	–
ACAGACGAAGGAGCCGCAAAGACGTTATTAACGGATGAATAATCCCTCAATATAAATATCTCTCACTTATTTAAA	0.165	–	–

Sequence	cleaved RNA product abundance [1]	cleaved RNA product abundance [2]	cleaved RNA product abundance [3]
ACAGACGAAGGAGCCGCAAAGACGTTATTAAGAGATGAATAATCCCTCAATATAAATATCTCTCACTTATTTAAA	0.116	0.101	–
ACAGACGAAGGAGCCGCAAAGACGTTATTAAGCGATGAATAATCCCTCAATATAAATATCTCTCACTTATTTAAA	0.155	–	–
ACAGACGAAGGAGCCGCAAAGACGTTATTAAGGAATGAATAATCCCTCAATATAAATATCTCTCACTTATTTAAA	0.14	–	–
ACAGACGAAGGAGCCGCAAAGACGTTATTAAGGGATAAATAATCCCTCAATATAAATATCTCTCACTTATTTAAA	1.2	–	–
ACAGACGAAGGAGCCGCAAAGACGTTATTAAGGGATCAATAATCCCTCAATATAAATATCTCTCACTTATTTAAA	0.743	–	–
ACAGACGAAGGAGCCGCAAAGACGTTATTAAGGGATGAATAAACCCTCAATATAAATATCTCTCACTTATTTAAA	0.312	–	–
ACAGACGAAGGAGCCGCAAAGACGTTATTAAGGGATGAATAATCACTCAATATAAATATCTCTCACTTATTTAAA	0.188	0.101	–
ACAGACGAAGGAGCCGCAAAGACGTTATTAAGGGATGAATAATCCATCAATATAAATATCTCTCACTTATTTAAA	0.312	0.156	–
ACAGACGAAGGAGCCGCAAAGACGTTATTAAGGGATGAATAATCCCCCAATATAAATATCTCTCACTTATTTAAA	0.226	–	–
ACAGACGAAGGAGCCGCAAAGACGTTATTAAGGGATGAATAATCCCTCAAAATAAATATCTCTCACTTATTTAAA	–	0.31	–
ACAGACGAAGGAGCCGCAAAGACGTTATTAAGGGATGAATAATCCCTCAACATAAATATCTCTCACTTATTTAAA	0.316	–	–
ACAGACGAAGGAGCCGCAAAGACGTTATTAAGGGATGAATAATCCCTCAAGATAAATATCTCTCACTTATTTAAA	0.205	–	–
ACAGACGAAGGAGCCGCAAAGACGTTATTAAGGGATGAATAATCCCTCAATATAAATATCTCTCACTTATTTAAA	1.02	0.978	1.12
ACAGACGAAGGAGCCGCAAAGACGTTATTAAGGGATGAATAATCCCTCAATATAGATATCTCTCACTTATTTAAA	0.456	–	–
ACAGACGAAGGAGCCGCAAAGACGTTATTAAGGGATGAATAATCCCTCCATATAAATATCTCTCACTTATTTAAA	–	0.338	–
ACAGACGAAGGAGCCGCAAAGACGTTATTAAGGGATGAATAATCCCTCGATATAAATATCTCTCACTTATTTAAA	0.386	–	–
ACAGACGAAGGAGCCGCAAAGACGTTATTAAGGGATGAATAATCCCTCTATATAAATATCTCTCACTTATTTAAA	0.572	–	–
ACAGACGAAGGAGCCGCAAAGACGTTATTAAGGGATGAATAATCCGTCAATATAAATATCTCTCACTTATTTAAA	0.192	–	–
ACAGACGAAGGAGCCGCAAAGACGTTATTAAGGGATGAATAATCCTTCAATATAAATATCTCTCACTTATTTAAA	–	0.427	–
ACAGACGAAGGAGCCGCAAAGACGTTATTAAGGGATGAATAATTCCTCAATATAAATATCTCTCACTTATTTAAA	0.944	–	–
ACAGACGAAGGAGCCGCAAAGACGTTATTAAGGGATGAATCATCCCTCAATATAAATATCTCTCACTTATTTAAA	0.771	0.89	–

Sequence	cleaved RNA product abundance [1]	cleaved RNA product abundance [2]	cleaved RNA product abundance [3]
ACAGACGAAGGAGCCGCAAAGACGTTATTAAGGGATGACTAATCCCTCAATATAAATATCTCTCACTTATTTAAA	–	0.561	–
ACAGACGAAGGAGCCGCAAAGACGTTATTAAGGGATGATTAATCCCTCAATATAAATATCTCTCACTTATTTAAA	0.779	–	–
ACAGACGAAGGAGCCGCAAAGACGTTATTAAGGGATTAATAATCCCTCAATATAAATATCTCTCACTTATTTAAA	0.857	0.747	–
ACAGACGAAGGAGCCGCAAAGACGTTATTAAGGTATGAATAATCCCTCAATATAAATATCTCTCACTTATTTAAA	0.153	0.0832	–
ACAGACGAAGGAGCCGCAAAGACGTTATTAATGGATGAATAATCCCTCAATATAAATATCTCTCACTTATTTAAA	0.115	0.115	–
ACAGACGAAGGAGCCGCAAAGACGTTATTAATGGATGAATAATCCTTCAATATAAATATCTCTCACTTATTTAAA	0.23	–	–
ACAGACGAAGGAGCCGCAAAGACGTTATTATGGGATGAATAATCCCTCAATATAAATATCTCTCACTTATTTAAA	0.284	–	–
ACAGACGAAGGAGCCGCAAAGACGTTCTTAAGGGATGAATAATCCCTCAATATAAATATCTCTCACTTATTTAAA	0.231	–	–
ACAGACGAAGGAGCCGCAAAGACGTTTTTAAGGGATGAATAATCCCTCAATATAAATATCTCTCACTTATTTAAA	0.44	–	–
ACAGACGAAGGAGCCGCAAAGACTTTATTAAGGGATGAATAATCCCTCAATATAAATATCTCTCACTTATTTAAA	0.8	–	–
ACAGACGAAGGAGCCGCAAAGAGCTTATTAAGGGATGAATAATCCCTCAATATAAATATCTCTCACTTATTTAAA	0.743	–	–
ACAGACGAAGGAGCCGCAAAGAGGTAATTAAGGGATGAATAATCCCTCAATATAAATATCTCTCACTTATTTAAA	0.176	–	–
ACAGACGAAGGAGCCGCAAAGAGGTTAATAAGGGATGAATAATCCCTCAATATAAATATCTCTCACTTATTTAAA	0.363	–	–
ACAGACGAAGGAGCCGCAAAGAGGTTATTAAAGGATGAATAATCCCTCAATATAAATATCTCTCACTTATTTAAA	–	0.166	–
ACAGACGAAGGAGCCGCAAAGAGGTTATTAAGAGATGAATAATCCCTCAATATAAATATCTCTCACTTATTTAAA	0.126	–	–
ACAGACGAAGGAGCCGCAAAGAGGTTATTAAGCGATGAATAATCCCTCAATATAAATATCTCTCACTTATTTAAA	0.0624	–	–
ACAGACGAAGGAGCCGCAAAGAGGTTATTAAGGCATGAATAATCCCTCAATATAAATATCTCTCACTTATTTAAA	–	0.0794	–
ACAGACGAAGGAGCCGCAAAGAGGTTATTAAGGGATAAATAATCCCTCAATATAAATATCTCTCACTTATTTAAA	0.62	–	–
ACAGACGAAGGAGCCGCAAAGAGGTTATTAAGGGATGAATAATCACTCAATATAAATATCTCTCACTTATTTAAA	0.102	–	–
